Test results published in patent US20100267638A1, “EXOSITE-DIRECTED THROMBIN INHIBITORS” (CLEVELAND STATE UNIVERSITY, priority 2003, published 2010).
Entries after “also recorded” stand apart in the source; their conditions may differ. One block for each substance: values may come before it. No end group written: not given here. *: point of attachment. SO3 = O=S(=O)(O)*

Tests used:
[1] = biological target: factor Xa (Homo sapiens, UniProt P00742); experiment: Cofactor effect of factor Va heavy chain peptides on factor Xa alone; assay type: biochemical; conditions: peptide incubated with factor Xa alone
Sequence of factor Xa (P00742 235-488 limits assumed): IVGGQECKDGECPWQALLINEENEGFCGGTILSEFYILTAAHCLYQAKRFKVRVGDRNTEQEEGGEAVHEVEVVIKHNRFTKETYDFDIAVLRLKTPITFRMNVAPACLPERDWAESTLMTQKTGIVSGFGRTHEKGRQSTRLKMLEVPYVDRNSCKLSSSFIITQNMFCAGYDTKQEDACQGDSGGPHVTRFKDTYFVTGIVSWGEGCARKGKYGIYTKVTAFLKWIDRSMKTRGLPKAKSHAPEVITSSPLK
Sequence of factor Xa (P00742 41-179 limits assumed): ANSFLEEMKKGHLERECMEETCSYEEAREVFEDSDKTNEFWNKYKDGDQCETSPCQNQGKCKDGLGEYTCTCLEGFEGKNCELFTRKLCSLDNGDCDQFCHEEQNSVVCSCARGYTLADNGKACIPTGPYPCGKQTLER

[2] = biological target: T1, prothrombinase (Homo sapiens, UniProt P00734); experiment: Assay measuring thrombin formation (prothrombinase inhibition by peptides, DAPA fluorescence); assay type: biochemical; conditions: for inhibition of prothrombinase activity with increasing peptide: FIG. 10A, up to 8000 nM
T1 construct: purchased Haematologic Technologies Inc. (Essex Junction, Vt.)
Protocol: Assay measuring thrombin formation. The formation of thrombin was analyzed using the fluorescent thrombin inhibitor DAPA as described using a Perkin Elmer LS-50B Luminescence Spectrometer (Perkin-Elmer LLC, Norwalk Conn.) with λex=280 nm, λem=550 nm and a 500 nm long pass filter in the emission beam (Schott KV-500). […] In all cases peptides were preincubated with factor tor Va prior to the assay as described in the legend to the figures. The final concentration of factor tor Va in the mixture was 4 nM with factor Xa at 10 nM, prothrombin at 350 nM, DAPA at 700 nM, in the presence of PCPS vesicles (10 μM). The initial rate of thrombin formation (nM IIa·min^−1) was calculated as described during the initial 5-10 sec of the reaction. To verify if the peptides have any effect on the active-site of thrombin, control experiments were performed as follows: a given peptide (at 100 μM) was incubated in the assay buffer containing DAPA (700 nM); the base line was monitored for 30 sec; thrombin (350 nM) was then added to the mixture and the fluorescent intensity resulting from the complexation of DAPA with the active site of thrombin was monitored for 60 sec. The slope of the reaction measuring thrombin formation in the presence of a given peptide during the first 5 sec was calculated and compared to the slope of a reaction obtained in the absence of peptide. It is noteworthy that under the conditions employed the thrombin-DAPA interaction occurred fast and the calculated slope of the reaction was sensitive to all parameters used. […] All experiments were performed in triplicates or as indicated. The concentration of each peptide given in the figures and figure legends is their final concentration in the assay. […] In some cases the data were also analyzed and plotted using DeltaGraph (DeltaPoint, Monterey, Calif.).
Specifically, peptides were incubated with factor tor Va as described herein at a fixed concentration (100 μM). The percent of factor tor Va cofactor activity was calculated by comparing the activity of prothrombinase in the presence of a given peptide to the activity of prothrombinase determined in a control reaction in the absence of peptide and in the presence of factor Xa. […] The control peptide represents a pentadecapeptide from the middle portion of factor tor Va heavy chain (P15H) (SEQ ID NO. 22). […] All other peptides from region 680-709 had no significant effect on prothrombinase activity.
HC3 represents amino acid sequence 690-699 of factor tor Va heavy chain; HC4 contains the sequence 695-704 of human factor tor Va heavy chain; P15H represents amino acid sequence 337-351 from the middle portion of human factor tor Va heavy chain. […] The concentration of each peptide given on the x axis represents its final concentration in the prothrombinase mixture. […] Thus, both peptides show similar inhibitory potential.

[3] = Clotting time as a function of peptide concentration (FIG. 12); conditions: peptide 500 nM
From the text: FIG. 12 is a graph illustrating clotting time as a function of concentration of various peptides of interest as follows: DYDYQ (SEQ ID NO. 11) (filled squares); DYDYQ (1, 2) (or as designated in shorthand form, D5Q1,2) (SEQ ID NO. 9) (filled triangles); DYDYQ-1 (SEQ ID NO. 7) (filled inverted triangles); and DYDYQ-2 (SEQ ID NO. 8) (filled diamonds).

[4] = system: factor V deficient plasma; experiment: Clotting activity of recombinant factor V molecules; conditions: for Activity / Specific activity / clotting time: factor V species at 2.5 nM
Protocol: Determination of factor V/tor Va clotting activity of the recombinant molecules. Cofactor activity of wild type and mutant molecules was measured in a clotting assay using factor V deficient plasma prior and after activation by thrombin (15 min, 37° C.) and RVV-V activator (2 hr, 37° C.) as described. The values were standardized to the percentage of control. A linear semi-log graph was constructed using known concentrations of purified factor V (U/ml as a function of clotting time). The assay endpoint was determined by visualization of the fibrin clot. The activity of the factor VNa solution (U/ml) was determined by extrapolation from the graph. The concentration of the recombinant molecules was determined by a recently described ELISA. Finally, the numbers were combined to obtain the specific activity of the recombinant factor V solutions (U/mg).

[5] = biological target: T2, active-site-immobilized thrombin (Homo sapiens, UniProt P00734); experiment: Direct binding of the peptides to thrombin-agarose (chromatography); conditions: 400 μg peptide, 2.5 ml column, elution 2M NaCl
T2 construct: Factor Xa cleaves prothrombin to form thrombin; purchased Haematologic Technologies Inc. (Essex Junction, Vt.)
Protocol: Direct binding of the peptides to thrombin. Thrombin was immobilized onto agarose through the active site as described. Peptide solutions of HC1-HC5 (SEQ ID NO. 2-6, respectively), D13R (SEQ ID NO. 21), DYDYQ (SEQ ID NO. 11), and P15H (SEQ ID NO. 22) were dissolved in water to a given concentration and then diluted in 20 mM Hepes, 0.1 M NaCl, pH 7.4 in a manner that 400 μg was contained in each starting solution. In control experiments it was determined that the maximum amount of peptide that could be retained by the thrombin-agarose column was 400 μg. Since some of the peptides contain aromatic amino acid residues, their concentration was also measured by optical density.
Mass spectrometry instruments and conditions. The identity of all peptides found in the flow-through or the elution of the thrombin-agarose column was verified by mass spectrometry. Since the peptides were in a buffer solution, we used Liquid Chromatography/Mass Spectrometry (LC/MS) for their identification. In this procedure peptides are first separated from the salt content of the buffer using an HPLC system (HP 1100, HPLC gradient system, Agilent Technologies, Palo Alto Calif.) with a C18 column (1 mm×15 cm, GraceVydac, Hesperia Calif.) with buffers A (0.3% acetic acid in water) and B (0.3% acetic acid in acetonitrile). The elution of the column was monitored with a Micromass Quatro II ESI-Triple Quadrupole Mass Spectrometer (Waters, Milford Mass.). The data were collected using a Compaq Professional Workstation AP200 (Hewlett-Packard, Palo Alto Calif.) and analyzed by the software MassLynx v3.3 (Waters, Milford Mass.).
Direct interaction of hirudin-like peptides from factor tor Va heavy chain With thrombin-agarose. To ascertain that the peptides of interest are inhibitory of prothrombinase activity and contain a binding site for thrombin, the interaction of all peptides with active-site-immobilized thrombin was studied in chromatographic experiments and is shown in FIG. 5. In FIG. 5, small scale chromatography of hirudin-like peptides was performed on a 2.5 ml thrombin-agarose. Each run represents 400 μg of peptide. This amount of peptide was determined to saturate the specific sites of thrombin of the column used (2.5 ml). Elution was performed with 2M NaCl and was started at the point indicated by the arrow (fraction #30). The presence of the peptides in the corresponding fractions was monitored by absorbance at 280 nm (shown on the y axis) and by LC/MS (inset). […] Specifically, these peptides were treated similarly to all other peptides and similar fractions were collected. Aliquots from fractions #7 and #35 from each separate experiment were submitted to LC/MS analysis as described herein (depicted by the hatched arrows at the bottom of the chromatogram). The results from tube #7 from three chromatograms are depicted. The data are presented as % intensity of the signal as a function of the mass of the peptide divided by the charge (m/z). FIG. 5A, HC1 (Mr calculated 1268); FIG. 5B, HC2 (Mr calculated 1132); FIG. 5C, HC5 (Mr calculated 1053). The spectrum of HC1 has two major peaks: at 635.5 and at 424, and one minor peak at 1270 (1268+1). The peak at 635.5 represents the peptide (mass/charge) with two positive charges ([…]) i.e. [(1268+2=1270)]/2=635 whereas, the peak at 424 represents HC1 with three positive charges ([…]) i.e. [(1268+3=1271)]/3=424. […] HC5 spectrum has two major peaks: one at 528 and one at 352. The peak at 528 represents the peptide with two positive charges ([…]) i.e. [(1053+2=1055)]/2=527.5 while, the other peak represents HC5 with three positive charges ([M+31-]^2+) i.e. [(1053+3=1056)]/3=352. The minor peak at 1054 represents the peptide with one charge. It is noteworthy, that in gas phase the number of protons attached to each peptide depends on the number (quantity) of basic residues contained in each peptide. […] Thus, HC1 and HC5 are more likely to bind two or three protons than HC2. […]

Substance: AP4′: nine amino acid peptide, residues 323-331, from N42R (EYFIAAEEV; listed as Homo sapiens)
cofactor effect on factor Xa [1]: generated a cofactor effect

Substance: DYDY(—SO3)Q (DYDY(SO3)Q) [DYDYQ-2, DYDYQ with second Y sulfonated]
inhibition of prothrombinase activity with increasing peptide [2]: significant inhibitory effects
clotting time [3]: relatively long clotting times

Substance: E5A: five amino acid peptide, residues 323-327, from N42R (EYFIA; listed as Homo sapiens)
cofactor effect on factor Xa [1]: generated a cofactor effect

Substance: Factor V^2K2F: quadruple mutant, recombinant human factor V with mutations D695→K, Y696→F, D697→K, Y698→F
ability to promote clotting [4]: unable to promote clotting
Activity [4]: 0.0046 U/ml
Specific activity [4]: 5.6 U/mg
clotting time [4]: 66.7 ± 1.3 s

Substance: N42R: 42 amino acid peptide from the middle portion of factor Va heavy chain, residues 307-351 of factor V (NLKKITREQRRHMKRWEYFIAAEEVIWDYAPVIPANMDKKYR; listed as Homo sapiens)
cofactor effect on factor Xa [1]: increasing the catalytic efficiency of the enzyme by several-fold

Substance: Wild type FV: recombinant wild type human factor V expressed in COS-7L cells
specific clotting activity after activation by RVV-V activator ([4]; activated by RVV-V activator): 570 U/mg
specific clotting activity after activation by thrombin ([4]; activated by thrombin): 497 U/mg
Activity [4]: 0.12 U/ml
Specific activity [4]: 145 U/mg
clotting time [4]: 32.1 ± 1.2 s

Now from value to substance, other results behind:

inhibition of prothrombinase activity with increasing peptide [2]: significant inhibitory effects
Substance: DY(—SO3)DYQ (DY(SO3)DYQ) [DYDYQ-1, DYDYQ with first Y sulfonated]
clotting time [3]: relatively long clotting times

interaction with immobilized thrombin (thrombin-agarose) [5]: present in the flow-through
Substance: HC1: overlapping 10 amino acid peptide from region 680-709 of human factor Va heavy chain (KMHDRLEPED; listed as Homo sapiens)

interaction with immobilized thrombin (thrombin-agarose) [5]: present in the flow-through
Substance: HC2: overlapping 10 amino acid peptide from region 680-709 of human factor Va heavy chain (LEPEDEESDA; listed as Homo sapiens)

interaction with immobilized thrombin (thrombin-agarose) [5]: did not interact with thrombin
Substance: P15H: negative control pentadecapeptide, amino acid sequence 337-351 from the middle portion of human factor Va heavy chain (PVIPANMDKKYRSQH) [reference compound]
effect on prothrombinase / factor Va cofactor activity at fixed concentration ([2]; peptide 100 μM): no effect on cofactor activity; also recorded: no effect on prothrombinase function
